This is an account of results in article PMC6834678.

In assay [1] the target is C1q (of human serum) (human (endogenous in human serum)) (UniProt P02745).
Assay [2] deals with wt-IgG4 (class-switched IgG4 variant of Trastuzumab, wild-type Fc) (human). In words: SPR; antibody variants immobilised on CM5 chip (~500 RU, amine coupling); hFcRn:hβ2m dimer injected at serial dilutions (1000-40 nM) in PBS, pH 5.8, 30 μL/min; KD from steady-state isotherms or from kinetics with a 1:1 Langmuir mass transfer model. In general terms: In SPR one partner is held on a chip, and binding of the other changes the refractive index at the surface.

For assay [3], the target named is EDH-IgG1 (Trastuzumab IgG1 with V264E, L309D, Q311H) (human). The description is as above.
Assay [4] has as its target N434S-IgG1 (Trastuzumab IgG1 with N434S) (human). The description is as above.
Assay [5] deals with DHS-IgG4 (class-switched IgG4 variant of Trastuzumab with the DHS mutations) (human). Described as above.
Assay [6] deals with DHS-IgG3 (class-switched IgG3 variant of Trastuzumab, G3m16 allotype with H435, with the DHS mutations) (human). The assay is described as above.
In assay [7] the target is wt-IgG3 (class-switched IgG3 variant of Trastuzumab, G3m16 allotype with H435, wild-type Fc) (human). Described as above.

Chain of UniProt P02745 (P02745 23-245, chain 1 of 3): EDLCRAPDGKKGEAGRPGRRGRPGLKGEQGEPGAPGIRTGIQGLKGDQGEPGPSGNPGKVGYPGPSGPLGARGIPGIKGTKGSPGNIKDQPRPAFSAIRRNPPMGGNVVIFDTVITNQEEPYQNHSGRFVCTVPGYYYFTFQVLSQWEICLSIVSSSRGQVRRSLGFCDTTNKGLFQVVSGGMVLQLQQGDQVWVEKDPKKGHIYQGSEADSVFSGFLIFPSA
Chain of UniProt P02745 (P02746 28-253, chain 2 of 3, further chain): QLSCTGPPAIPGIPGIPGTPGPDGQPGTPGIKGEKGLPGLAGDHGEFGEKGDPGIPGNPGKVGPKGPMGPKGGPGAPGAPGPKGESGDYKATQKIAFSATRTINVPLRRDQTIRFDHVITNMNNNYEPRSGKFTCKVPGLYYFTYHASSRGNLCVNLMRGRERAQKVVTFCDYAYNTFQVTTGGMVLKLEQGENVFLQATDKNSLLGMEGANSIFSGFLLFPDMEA
Chain of UniProt P02745 (P02747 29-245, chain 3 of 3, further chain): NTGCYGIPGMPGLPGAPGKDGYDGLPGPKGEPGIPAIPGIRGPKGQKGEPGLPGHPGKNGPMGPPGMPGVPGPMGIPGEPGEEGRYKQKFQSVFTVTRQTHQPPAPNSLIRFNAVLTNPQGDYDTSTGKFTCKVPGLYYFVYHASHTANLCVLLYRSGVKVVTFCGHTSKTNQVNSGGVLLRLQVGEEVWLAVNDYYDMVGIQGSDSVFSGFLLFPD

“DHS-Rituximab IgG1 (anti-CD20 IgG1 with L309D/Q311H/N434S) (antibody)” returned a CDC of Raji cells with 25% human serum against antibody concentration; potency (name of the quantity not given) in assay [1] of 0.7 µg/mL.
Substance “LS-Rituximab (anti-CD20 IgG1 with M428L/N434S) (antibody)” showed a CDC of Raji cells with 25% human serum against antibody concentration; potency (name of the quantity not given) in assay [1] of 1.9 µg/mL.
As usually defined, the Kd is the concentration at which binding is half-saturated. Read a high Kd as weaker binding. Turning to “human FcRn/human β2m complex (hFcRn:hβ2m dimer) (from UniProt P55899 24-297; P61769 21-119)”, the Kd was 2.46 µM in assay [2]; 0.487 µM in assay [3]; 0.22 µM in assay [4]; 0.832 µM in assay [5]; 0.739 µM in assay [6]; 4.08 µM in assay [7].
